Here are results for two substances from patent US9814672B2, “Echogenic vehicle for clinical delivery of plasminogen activator and other fibrin-binding therapeutics to thrombi” (priority 2007, dated 2017).

For test [1], the target named is T1, fibrin (Homo sapiens, UniProt P02671+P02675+P02679).
T1 construct: were incubated on replicate fibrin pads, prepared in microplate wells; purchased Calbiochem (EMD Biosciences, Inc., La Jolla, Calif.)
T1 sequence (P02671 36-629 limits assumed): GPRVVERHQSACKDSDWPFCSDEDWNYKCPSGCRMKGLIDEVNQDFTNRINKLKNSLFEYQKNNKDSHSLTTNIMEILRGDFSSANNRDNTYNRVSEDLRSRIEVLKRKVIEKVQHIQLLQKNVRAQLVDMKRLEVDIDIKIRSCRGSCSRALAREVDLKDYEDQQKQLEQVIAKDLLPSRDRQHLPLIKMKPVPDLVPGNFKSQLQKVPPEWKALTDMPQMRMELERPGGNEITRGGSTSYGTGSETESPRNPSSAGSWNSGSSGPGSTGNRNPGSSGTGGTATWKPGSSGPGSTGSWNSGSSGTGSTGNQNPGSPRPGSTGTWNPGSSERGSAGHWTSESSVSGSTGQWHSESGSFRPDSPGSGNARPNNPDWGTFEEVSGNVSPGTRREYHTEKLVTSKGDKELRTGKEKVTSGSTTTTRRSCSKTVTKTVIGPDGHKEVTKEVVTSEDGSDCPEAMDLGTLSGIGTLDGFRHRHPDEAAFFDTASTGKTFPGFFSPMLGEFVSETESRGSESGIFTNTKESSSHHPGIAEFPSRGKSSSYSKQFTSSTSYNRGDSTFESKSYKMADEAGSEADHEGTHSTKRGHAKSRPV
T1 sequence (P02675 45-491 limits assumed): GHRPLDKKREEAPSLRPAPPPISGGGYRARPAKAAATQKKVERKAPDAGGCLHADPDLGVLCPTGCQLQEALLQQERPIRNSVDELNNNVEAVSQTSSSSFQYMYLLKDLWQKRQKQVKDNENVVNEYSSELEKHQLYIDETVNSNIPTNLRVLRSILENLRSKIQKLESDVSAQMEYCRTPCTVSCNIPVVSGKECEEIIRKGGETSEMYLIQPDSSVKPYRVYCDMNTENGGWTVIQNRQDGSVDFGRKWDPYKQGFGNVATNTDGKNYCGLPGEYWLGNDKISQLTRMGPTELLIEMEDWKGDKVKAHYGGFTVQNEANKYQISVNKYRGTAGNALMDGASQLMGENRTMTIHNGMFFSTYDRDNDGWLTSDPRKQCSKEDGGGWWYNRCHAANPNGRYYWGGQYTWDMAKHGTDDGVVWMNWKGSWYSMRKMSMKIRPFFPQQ
T1 sequence (P02679 27-437 isoform P02679-2 limits assumed): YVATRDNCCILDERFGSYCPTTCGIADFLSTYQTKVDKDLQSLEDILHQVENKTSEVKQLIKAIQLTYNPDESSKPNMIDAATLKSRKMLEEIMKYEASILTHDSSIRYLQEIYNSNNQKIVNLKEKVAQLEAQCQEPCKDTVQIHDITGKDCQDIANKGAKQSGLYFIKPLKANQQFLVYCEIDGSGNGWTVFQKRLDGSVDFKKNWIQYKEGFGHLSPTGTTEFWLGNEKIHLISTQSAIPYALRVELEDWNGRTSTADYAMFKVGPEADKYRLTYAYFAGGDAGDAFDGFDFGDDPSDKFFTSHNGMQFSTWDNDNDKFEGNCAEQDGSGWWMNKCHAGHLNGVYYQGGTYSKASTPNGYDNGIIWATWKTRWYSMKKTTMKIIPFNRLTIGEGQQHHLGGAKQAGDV
Nature of the test: Two-stage fibrin pad ELISA, Scatchard and van't Hoff analysis. Conditions: undiluted fresh-frozen rabbit serum, 37° C.; read-out: binding affinity (KD) in serum.

The nature of test [2]: tPA enzyme activity after PPACK inactivation, paranitroanilide-substrate method. The class given is biochemical. Conditions: S.E., n=3. As to the method:
Reconstituted tPA was incubated with a fivefold molar excess of PPACK in 0.2 M L-arginine in 0.05M phosphate buffer, pH 7.2, with 0.01% Tween 20 for 1 hour at room temperature, followed by dialysis against reaction buffer to remove unreacted PPACK. A control preparation was carried through the procedure without PPACK and all procedures involving PPACK were protected from light. Enzyme activity in PPACK-treated and control tPA preparations was measured with a […] paranitroanilide-substrate method (Ranby and Wallen, 1981).

The target of test [3] is T1, fibrin. Nature of the test: Solid-phase fibrin-tPA activity assay (SOFIA-tPA), Scatchard analysis. Conditions: 37° C., read-out: KD of fibrin binding. As to the method: tPA-binding to fibrin was tested using a modification of the solid-phase fibrin-tPA activity assay (SOFIAtPA) developed by Angles-Cano (1986). This method combines a quantitative enzyme-linked immunosorbent assay (ELISA) technique, which enables calculation of ligand binding affinities, with a chromogenic measurement of enzyme specific activity. The latter provides quantitation of tPA bound to fibrin in the microtiter well, which permits the determination of binding affinities and immobilized fibrin concentration by classic Scatchard analysis.
Nunc Maxisorb microtiter plates were coated overnight at 4° C. with human fibrinogen (Calbiochem; 2.5.tg in 50 p.l 0.05 M sodium bicarbonate, pH 9.6, per well). Background wells were left uncoated. […]
About 200 μl of substrate-zymogen reagent (0.33 μM plasminogen+0.33 mM D-Val-Leu-Lys-p-nitroanilide in 0.02 M PBS, pH 7.3, with 0.1 M sodium chloride) was added to each sample well and to 12 additional wells (standard wells). […] The plates were then read at 405 nm in a Coulter microplate reader. Based on the response of the standards and the net OD of samples corrected for background absorbance in albumin-coated wells, concentrations of bound active tPA were calculated; Scatchard analyses were then performed and binding affinities determined.

Regarding “tPA(P): Human recombinant tPA (Activase®) irreversibly inhibited with D-phe-L-pro-L-arg-chloromethyl ketone (PPACK)”, the Kd in test [1] is 9.52 nM. Besides, the “Percent Starting Activity” value in test [2] amounted to 4.7 ± 2.9%.
“tPA: Recombinant tissue-plasminogen activator (Activase®, Genentech Inc.), used as the thrombolytic agent [reference compound]”: the Kd in test [3] was 2.61 nM.
